Test results reported in article doi:10.1101/2024.11.20.624454 (bioRxiv, 2024).

Molecular target: T1, Mus musculus SPO11, MBP-tagged (Mus musculus, UniProt Q9WTK8 1-396)
T1 sequence (looked up): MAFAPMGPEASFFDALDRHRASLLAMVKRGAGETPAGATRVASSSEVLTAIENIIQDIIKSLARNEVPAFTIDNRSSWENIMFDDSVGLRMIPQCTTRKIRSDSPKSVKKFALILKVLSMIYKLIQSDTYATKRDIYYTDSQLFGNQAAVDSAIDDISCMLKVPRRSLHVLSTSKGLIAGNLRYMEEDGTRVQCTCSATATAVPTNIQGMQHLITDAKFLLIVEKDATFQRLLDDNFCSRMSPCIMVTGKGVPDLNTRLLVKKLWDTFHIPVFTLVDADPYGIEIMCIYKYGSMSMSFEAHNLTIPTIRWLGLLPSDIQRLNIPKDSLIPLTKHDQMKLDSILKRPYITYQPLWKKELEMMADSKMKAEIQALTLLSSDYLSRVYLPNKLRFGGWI
Assay: SEC-MALS

- stoichiometry N: 1
B1: Mus musculus TOP6BL, HisFlag-tagged (natural protein, UniProt J3QMY9 1-579, looked up)
chain: MERTALAVCEILRYLIIHWKCEAGTAKGTLLDGQLVISIEALRSKHLPDSLHCIITIASTRSVYGGLNFKKFLQEIQPALPRLSAKLALASEEGGRSQDASGIAPCQVTFEVDENSQSLMTDCLVIKHFLRKIIIVHHKLKFSFSVAVNGTLSAETFGAENEPTLRLDNGVTLVVGFQRYVSKPKLNWSEAHCSRIHPVLGHPAPLFIPDAKADTGLLGELTLTPAAALCPSPKGFSSQLCRISSVSIFLYGPLGLPLLSSDQDQPSTAVFRDTSYFIDWKKYNLFMVPNLDLNLDTQSVLPDVNYKAESPEGNQSQNMNAQGPALLLFLFVDFQSDVPVQQAKIWGLHTLLTAHLSAILSESRSTVQQSIQSAVDQVWQLYHHDAKTQQRLQASLSVAVNSIMSVLTGSTRSSFRKTCLQALEAADTQEFGVKLHRIFYDITQHQFLKHCSCDTEQHLTPEKNISAQNTKDQHKNIAQEFPEESIGQAENKRPKRGSPNHGREESRVLGSARDRSPPKSATRDRELTEVSLTARGSQTQAAHGRAQAAEAASPAGGLEDLWLQEVSNLSEWLNPGHRS
